From patent US20190016810A1, “METHODS FOR TREATING OR PREVENTING GRAFT-VERSUS-HOST DISEASE INVOLVING THE ADMINISTRATION OF ANTI-CCR5 RECEPTOR AGENTS” (CytoDyn Inc., priority 2017, published 2019)
Entries after “also recorded” stand apart in the source; their conditions may differ.

Key:
CCR5 [1] = molecular target: T1, CCR5 (Homo sapiens, UniProt P51681); settings: activated human T cells, cited from earlier work
[2] = in vivo; cited from earlier work
[3] = system: engrafted human cells (CD45+, CD3+); assay: Flow cytometry analysis of engrafted human cells in peripheral blood, spleen and bone marrow of NSG mice; type: in vivo; settings: for CD45+ cells in peripheral blood at the time of euthanasia: control 64%
Protocol: Peripheral blood (PB), bone marrow (BM), and spleen (SPL) samples were analyzed by flow cytometry. Splenocytes were passed through a […] strainer. Erythrocytes were lysed with ammonium chloride. Cells were washed twice with PBS and stained for 15 min at 4 deg C. in PBS/0.5 mM EDTA/0.5% BSA with the following antibodies: anti-human-CD3-FITC (clone UCHT1, IM1281U), anti-human-CD45-PC7 (clone J.33, 1M3548U), Beckman/Coulter. Samples were analyzed on a Cytomics FC500 Flow Analyzer (Beckman/Coulter).

CCR5 [4] = molecular target: T1, CCR5; settings: CD4+ T cells, cited from earlier work
HIV-1 = settings: at concentrations that do not affect CCR5 chemokine receptor activity; in vitro and hu-PBL-SCID mouse model; cited from earlier work
CCR5 [5] = molecular target: T1, CCR5; parameters: host or cells: CHO-K1; settings: CHO-K1 cells, cited from earlier work
xeno-GVHD in NSG mice = xeno-GVHD in NSG mice engrafted with human bone marrow cells: physical signs, weight, survival
Protocol: Animal experiments were conducted in accordance with the ethical standards and according to national and international guidelines and were approved by the Cleveland Clinic Institutional Animal Care and Use Committee. Male NSG mice, NOD.Cg-Prkdc^scidIl2ry^tm1wjl/SzJ (NOD-scid IL2ry^null, NSG) mice were obtained from the Jackson Laboratory (Bar Harbor, Me., USA), and athymic nude (nu/nu) (Taconic, Hudson, N.Y.) 6-8 wk old were used. Mice were housed in a barrier facility in cages with microisolator lids, autoclaved bedding, and HEPA-filtered air, and maintained under 12:12 light/dark cycles, controlled temperature and humidity. […] Conditioning regimen: Mice received 2.25 Gy total body irradiation via a 137Cs source (Shepherd, Los Angeles Calif.).
Following gamma irradiation (24 h later) mice were engrafted with human BM cells. De-identified human donor cells were obtained by back-flushing filter packs utilized by the Cleveland Clinic BMT program. Fresh (non-frozen) leukocytes were purified by Ficoll-Hypaque gradient centrifugation, washed in phosphate buffered saline (PBS), assessed for viability (ViCell, Beckman Coulter, Brea, Calif.). Human BM leukocytes were injected into the lateral tail vein (10^7 cells/mouse). Mice were monitored for clinical symptoms of GVHD (body posture, activity, fur and skin condition, weight loss) two times/wk. Peripheral blood was monitored weekly for engraftment utilizing saphenous vein venipuncture (50 mL) collected in K-EDTA tubes.
Mice were randomized into control and treatment groups by body weight. PRO 140 was administered on different doses (0.2-2.0 mg/kg) and schedules. The route was always intraperitoneal (i.p.). Control mice received normal human IgG (Sigma Aldrich, St. Louis, Mo.).
Starting with the human dose of PRO 140=5.8 mg/kg×12 (man-to-mouse conversion factor)=69.6 mg/kg mouse dose; average mouse=0.025 kg, therefore dose is 69.6 mg/kg×0.025 kg=1.74 mg (mouse single dose). This was rounded up to 2.0 mg and designated as the “high dose”. A “low dose” (0.2 mg) was also tested. IgG derived from human serum (>95% SDS-PAGE, Sigma, I4506) was used as a non-specific control antibody.
Statistical analysis was performed using GraphPad Prism (GraphPad Software, La Jolla, Calif.). All measures of variance were depicted as standard error of the mean (SEM). Survival was analyzed by the Kaplan-Meier method and Mantel-Cox log-rank test. For other data, two-sided unpaired Students t-test was used.

CCR5 [6] = molecular target: T1, CCR5; assay: Tyrosine kinase phosphorylation downstream of CCR5 receptor signaling in T cells in vitro; type: cell-based; parameters: tyrosine kinase phosphorylation downstream of CCR5 receptor signaling in T cells in vitro; endogenous in cells; host or cells: T cells
Source text: Thus, it is shown that PRO 140's activity as a CCL5 competitive binding inhibitor has a mixed impact on CCL5's ability to participate in downstream activity conventionally associated with the CCR5/CCL5 axis. Further elucidation of the role of PRO 140 and its immunomodulatory effects is the subject of continued investigation.

T1 sequence (P51681 whole entry): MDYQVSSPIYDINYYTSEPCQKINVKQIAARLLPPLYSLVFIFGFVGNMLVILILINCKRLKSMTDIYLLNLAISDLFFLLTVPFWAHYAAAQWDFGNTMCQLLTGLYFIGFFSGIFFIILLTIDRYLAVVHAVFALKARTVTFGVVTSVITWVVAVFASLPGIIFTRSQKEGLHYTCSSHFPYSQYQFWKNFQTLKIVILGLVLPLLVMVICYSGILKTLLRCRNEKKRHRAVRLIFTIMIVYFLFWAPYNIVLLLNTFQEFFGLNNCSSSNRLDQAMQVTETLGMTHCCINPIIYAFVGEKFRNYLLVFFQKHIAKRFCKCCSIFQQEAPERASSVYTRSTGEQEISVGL

Cc1nnc(C(C)C)n1C1C[C@H]2CC[C@@H](C1)N2CC[C@H](NC(=O)C1CCC(F)(F)CC1)c1ccccc1 (stereo in doubt) [maraviroc]
production of TNF-α and IFN-γ (CCR5 [1]; high doses): tends to decrease production of TNF-α and IFN-γ
CCR5 and CCR2 internalization induced by CCL5 and CCL2 (CCR5 [1]): can block CCR5 and CCR2 internalization processes
T cell chemotactic activities toward cognate ligands (CCR5 [1]): inhibit T cell chemotactic activities
incidence of gastrointestinal and liver GVHD [2]: dramatically decreases the incidence of gastrointestinal and liver GVHD

B1: PRO 140: humanized monoclonal antibody to CCR5, humanized version of the murine mAb PA14; competitive inhibitor of CCL5 binding to CCR5 receptor (antibody, chains of the INN, looked up, V domains shown)
VH: EVQLVESGGGLVKPGGSLRLSCAASGYTFSNYWIGWVRQAPGKGLEWIGDIYPGGNYIRNNEKFKDKTTLSADTSKNTAYLQMNSLKTEDTAVYYCGSSFGSNYVFAWFTYWGQGTLVTVSS
VL: DIVMTQSPLSLPVTPGEPASISCRSSQRLLSSYGHTYLHWYLQKPGQSPQLLIYEVSNRFSGVPDRFSGSGSGTDFTLKISRVEAEDVGVYYCSQSTHVPLTFGQGTKVEIK
effect on engraftment ([3]; bone marrow at the time of euthanasia): did not inhibit engraftment; also recorded: did not negatively affect engraftment
CD45+ cells in bone marrow versus control at the time of euthanasia ([3]; compared with control IgG mice): no differences
CD45+ cells in spleen at the time of euthanasia ([3]; control 58-59%, p<0.05): 41%
CD45+ cells in peripheral blood at the time of euthanasia ([3]; p<0.05): 46%
CD45+ cells in peripheral blood at the time of euthanasia ([3]; p<0.05, listed as Pro 140): 45%
mouse hematopoietic cells (mouse CD45) in bone marrow ([3]; high dose cohort, Day 75): 28%
mouse hematopoietic cells (mouse CD45) in peripheral blood ([3]; high dose cohort, Day 75): 14.9%
mature T-cells (CD45/CD3) in bone marrow at 54 days ([3]; high dose cohort, FIG. 6 BM panel E2 quadrant, control 40.2%): 26.4%
mature T-cells (CD45/CD3) in peripheral blood at 54 days ([3]; high dose cohort, FIG. 6 PB panel E2 quadrant, control 63.2%): 49.8%
human CD45+ cells in peripheral blood versus control at day 50 ([3]; high dose, compared with control IgG mice): significantly lower
human CD45+ cells in peripheral circulation at 50 days ([3]; high dose, control 62%, p=0.034): 43%
delay until the same percentage of CD45+ engraftment as control ([3]; low dose (0.2 mg), peripheral blood, P<0.01): approximately 20 days
divergence in engraftment from control, start ([3]; low dose cohort (0.2 mg)): 15 days
effect on cAMP levels, added alone (CCR5 [4]; PRO 140 alone): does not affect cAMP levels
effect on cAMP levels, administered with CCL5 (CCR5 [4]; with CCL5): does diminish the effect of CCL5 on cAMP levels
HIV-1 entry and replication (HIV-1): potently inhibits HIV-1 entry and replication
effect on chemotaxis, alone (CCR5 [5]; PRO 140 alone): does not affect chemotaxis
effect on CCL5-induced chemotaxis (CCR5 [5]; with CCL5): does reduce CCL5-induced chemotaxis
survival (Kaplan-Meier), low dose (xeno-GVHD in NSG mice; PRO 140 0.2 mg i.p., BM from donor, control animals all dead by 31 days): ≤ 54 days
start of physical signs of GvHD and weight loss, low dose (xeno-GVHD in NSG mice; PRO 140 0.2 mg i.p., control mice starting at day 20): 25 to 28 days
mean weight at about 20 days (xeno-GVHD in NSG mice; PRO 140 2.0 mg i.p. twice/wk started day 1, about 20 days after engraftment): about 23.0 gm
mean weight at about 52 days (xeno-GVHD in NSG mice; PRO 140 2.0 mg i.p. twice/wk started day 1, about 52 days after engraftment): about 23.6 gm
survival (Kaplan-Meier), high dose (xeno-GVHD in NSG mice; PRO 140 2.0 mg i.p. twice/wk started day 1, sacrificed at 70 days, control IgG animals all dead by 56 days): ≥ 70 days
physical signs / symptoms of GVHD (xeno-GVHD in NSG mice; high dose (2.0 mg i.p. twice/wk), 70-day study period): did not exhibit any symptoms associated with GVHD; also recorded: no physical signs of GVHD
weight course (xeno-GVHD in NSG mice; high dose (2.0 mg i.p. twice/wk), control mice lost weight): gained weight; also recorded: continued to gain weight
survival (xeno-GVHD in NSG mice; past 70 days, xeno-transplant animal model, NSG mice upon HSC engraftment): 100%
effect on tyrosine kinase phosphorylation, alone (CCR5 [6]; PRO 140 alone): does not affect tyrosine kinase phosphorylation
effect on phosphorylation of tyrosine kinases by CCL5 (CCR5 [6]; with CCL5): does not inhibit phosphorylation of such kinases by CCL5
